Bridge positions count the residues as written; N and C are the ends. Ends that are not written are not given here. COCH2 = acetyl group that carries the bridge
B1: cyclic peptide SEQ ID NO: 337 (peptide)
peptide: YCEKNYLDPEQYQYFIYFK(COCH2)Y
modifications: thioether 2-19; not fully specified; printed as Y-(C)-EKNYLDPEQYQYFIYF-(K(acetyl))-Y
B2: cyclic peptide SEQ ID NO: 356 (peptide)
peptide: YCEENYLDPEQYMYFIYFK(COCH2)Y
modifications: thioether 2-19
B3: cyclic peptide SEQ ID NO: 339 (peptide)
peptide: YCEENYKDPEQYQYFIYFK(COCH2)Y
modifications: thioether 2-19; not fully specified; printed as Y-(C)-EENYKDPEQYQYFIYF-(K(acetyl))-Y
B4: cyclic peptide SEQ ID NO: 390 (peptide)
peptide: YCEENYLDPEQYQYFHYFK(COCH2)R
modifications: thioether 2-19
B5: cyclic peptide SEQ ID NO: 348 (peptide)
peptide: YCMENYLDPEQYQYFIYFK(COCH2)Y
modifications: thioether 2-19
B6: cyclic peptide SEQ ID NO: 341 (peptide)
peptide: YCEENYLDKEQYQYFIYFK(COCH2)Y
modifications: thioether 2-19; not fully specified; printed as Y-(C)-EENYLDKEQYQYFIYF-(K(acetyl))-Y
B7: cyclic peptide SEQ ID NO: 347 (peptide)
peptide: MCEENYLDPEQYQYFIYFK(COCH2)Y
modifications: thioether 2-19
B8: cyclic peptide SEQ ID NO: 358 (peptide)
peptide: YCEENYLDPEQYQYFMYFK(COCH2)Y
modifications: thioether 2-19
B9: cyclic peptide SEQ ID NO: 345 (peptide)
peptide: YCEENYLDPEQYQYFIKFK(COCH2)Y
modifications: thioether 2-19; not fully specified; printed as Y-(C)-EENYLDPEQYQYFIKF-(K(acetyl))-Y
B10: cyclic peptide SEQ ID NO: 395 (peptide)
peptide: YCHENYLDPEQYQYFHYFK(COCH2)H
modifications: thioether 2-19
B11: cyclic peptide SEQ ID NO: 346 (peptide)
peptide: YCEENYLDPEQYQYFIYFK(COCH2)K
modifications: thioether 2-19; not fully specified; printed as Y-(C)-EENYLDPEQYQYFIYF-(K(acetyl))-K
B12: cyclic peptide SEQ ID NO: 343 (peptide)
peptide: YCEENYLDPEQYKYFIYFK(COCH2)Y
modifications: thioether 2-19; not fully specified; printed as Y-(C)-EENYLDPEQYKYFIYF-(K(acetyl))-Y
B13: cyclic peptide SEQ ID NO: 340 (peptide)
peptide: YCEENYLKPEQYQYFIYFK(COCH2)Y
modifications: thioether 2-19; not fully specified; printed as Y-(C)-EENYLKPEQYQYFIYF-(K(acetyl))-Y
B14: cyclic peptide SEQ ID NO: 351 (peptide)
peptide: YCEENYMDPEQYQYFIYFK(COCH2)Y
modifications: thioether 2-19
B15: cyclic peptide SEQ ID NO: 344 (peptide)
peptide: YCEENYLDPEQYQYFKYFK(COCH2)Y
modifications: thioether 2-19; not fully specified; printed as Y-(C)-EENYLDPEQYQYFKYF-(K(acetyl))-Y
B16: cyclic peptide SEQ ID NO: 391 (peptide)
peptide: YCEENYLDPEQYQYFHYFK(COCH2)H
modifications: thioether 2-19
B17: cyclic peptide SEQ ID NO: 349 (peptide)
peptide: YCEMNYLDPEQYQYFIYFK(COCH2)Y
modifications: thioether 2-19
B18: cyclic peptide SEQ ID NO: 393 (peptide)
peptide: YCHENYLDPEQHQYFHYFK(COCH2)Y
modifications: thioether 2-19
B19: cyclic peptide SEQ ID NO: 338 (peptide)
peptide: YCEENKLDPEQYQYFIYFK(COCH2)Y
modifications: thioether 2-19; not fully specified; printed as Y-(C)-EENKLDPEQYQYFIYF-(K(acetyl))-Y
B20: cyclic peptide SEQ ID NO: 342 (peptide)
peptide: YCEENYLDPKQYQYFIYFK(COCH2)Y
modifications: thioether 2-19; not fully specified; printed as Y-(C)-EENYLDPKQYQYFIYF-(K(acetyl))-Y
B21: cyclic peptide SEQ ID NO: 355 (peptide)
peptide: YCEENYLDPEQMQYFIYFK(COCH2)Y
modifications: thioether 2-19
B22: cyclic peptide SEQ ID NO: 360 (peptide)
peptide: YCEENYLDPEQYQYFIYFK(COCH2)M
modifications: thioether 2-19
B23: cyclic peptide SEQ ID NO: 352 (peptide)
peptide: YCEENYLMPEQYQYFIYFK(COCH2)Y
modifications: thioether 2-19
B24: cyclic peptide SEQ ID NO: 392 (peptide)
peptide: YCHENYLDPEQYQYFHYFK(COCH2)Y
modifications: thioether 2-19
B25: cyclic peptide SEQ ID NO: 359 (peptide)
peptide: YCEENYLDPEQYQYFIMFK(COCH2)Y
modifications: thioether 2-19
B26: cyclic peptide SEQ ID NO: 394 (peptide)
peptide: YCHENYLDPEQYQYFHYFK(COCH2)R
modifications: thioether 2-19
B27: cyclic peptide SEQ ID NO: 357 (peptide)
peptide: YCEENYLDPEQYQMFIYFK(COCH2)Y
modifications: thioether 2-19
B28: cyclic peptide SEQ ID NO: 354 (peptide)
peptide: YCEENYLDPMQYQYFIYFK(COCH2)Y
modifications: thioether 2-19
B29: cyclic peptide SEQ ID NO: 353 (peptide)
peptide: YCEENYLDMEQYQYFIYFK(COCH2)Y
modifications: thioether 2-19
B30: cyclic peptide SEQ ID NO: 350 (peptide)
peptide: YCEENMLDPEQYQYFIYFK(COCH2)Y
modifications: thioether 2-19

The binders below were run against T1, Recombinant Human FGFR2 alpha (IIIc) Fc Chimera Protein, CF (R&D systems, 712-FR-050) (human, UniProt P21802 22-377) (assay: ELISA on plate-bound FGFR2-Fc).
T1 construct: bought; not shown: Fc part of the chimera
T1 sequence (P21802 22-377, change not shown): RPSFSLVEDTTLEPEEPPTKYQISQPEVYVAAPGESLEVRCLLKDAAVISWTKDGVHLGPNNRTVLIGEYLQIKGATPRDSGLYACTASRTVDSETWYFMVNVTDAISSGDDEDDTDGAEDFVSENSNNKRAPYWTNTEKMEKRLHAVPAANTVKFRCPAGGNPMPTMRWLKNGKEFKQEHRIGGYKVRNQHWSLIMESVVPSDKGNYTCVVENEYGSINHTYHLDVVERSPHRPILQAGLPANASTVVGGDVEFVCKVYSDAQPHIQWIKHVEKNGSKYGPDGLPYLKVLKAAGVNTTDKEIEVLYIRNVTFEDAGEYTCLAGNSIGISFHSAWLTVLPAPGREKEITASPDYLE
Summary of the method: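 Plate-immobilized FGFR2 alpha (IIIc)-Fc (5 ng/well) incubated with peptide 3 h at room temperature, then anti-Myc antibody 2 h and chemiluminescent ELISA substrate. Signal corrected by subtracting FGFR-free wells; binding affinity scored into categories from the dose-response.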

B1 and B2 cannot be ordered by “ELISA luminescence signal at 10 nmol/L peptide, relative to SEQ ID NO: 47 (=1)” value: at least 0.7 ratio for the first, at least 0.7 ratio for the second.

Compared with B3, B4 is lower in “ELISA luminescence signal at 10 nmol/L peptide, relative to SEQ ID NO: 47 (=1)” value: at least 0.7 ratio for the first, 0.1 to 0.5 ratio for the second.

B5 and B6 cannot be ordered by “ELISA luminescence signal at 10 nmol/L peptide, relative to SEQ ID NO: 47 (=1)” value: at least 0.7 ratio for the first, at least 0.7 ratio for the second.

B7 and B8 cannot be ordered by “ELISA luminescence signal at 10 nmol/L peptide, relative to SEQ ID NO: 47 (=1)” value: at least 0.7 ratio for the first, at least 0.7 ratio for the second.

B9 and B10 cannot be ordered by “ELISA luminescence signal at 10 nmol/L peptide, relative to SEQ ID NO: 47 (=1)” value: at least 0.7 ratio for the first, at least 0.7 ratio for the second.

B11 and B12 cannot be ordered by “ELISA luminescence signal at 10 nmol/L peptide, relative to SEQ ID NO: 47 (=1)” value: at least 0.7 ratio for the first, at least 0.7 ratio for the second.

Compared with B13, B14 is higher in “ELISA luminescence signal at 10 nmol/L peptide, relative to SEQ ID NO: 47 (=1)” value: 0.1 to 0.5 ratio for the first, at least 0.7 ratio for the second.

B15 and B16 cannot be ordered by “ELISA luminescence signal at 10 nmol/L peptide, relative to SEQ ID NO: 47 (=1)” value: at least 0.7 ratio for the first, at least 0.7 ratio for the second.

Compared with B17, B18 is lower in “ELISA luminescence signal at 10 nmol/L peptide, relative to SEQ ID NO: 47 (=1)” value: at least 0.7 ratio for the first, 0.1 to 0.5 ratio for the second.

First: B19
Second: B20
The “ELISA luminescence signal at 10 nmol/L peptide, relative to SEQ ID NO: 47 (=1)” value of the first is lower: 0.1 to 0.5 ratio for the first, at least 0.7 ratio for the second.

First: B21
Second: B22
The “ELISA luminescence signal at 10 nmol/L peptide, relative to SEQ ID NO: 47 (=1)” value of the first is lower: 0.1 to 0.5 ratio for the first, at least 0.7 ratio for the second.

B23 and B24 cannot be ordered by “ELISA luminescence signal at 10 nmol/L peptide, relative to SEQ ID NO: 47 (=1)” value: at least 0.7 ratio for the first, at least 0.7 ratio for the second.

B25 and B26 cannot be ordered by “ELISA luminescence signal at 10 nmol/L peptide, relative to SEQ ID NO: 47 (=1)” value: at least 0.7 ratio for the first, 0.5 to 0.7 ratio for the second.

First: B27
Second: B28
The “ELISA luminescence signal at 10 nmol/L peptide, relative to SEQ ID NO: 47 (=1)” value of the first is lower: 0.1 to 0.5 ratio for the first, at least 0.7 ratio for the second.

B29 and B30 cannot be ordered by “ELISA luminescence signal at 10 nmol/L peptide, relative to SEQ ID NO: 47 (=1)” value: at least 0.7 ratio for the first, at least 0.7 ratio for the second.

Reference: patent US20260008815A1, “CYCLIC PEPTIDE OR SALT THEREOF, AND USES THEREOF” (FUJIFILM Corporation, priority 2023, published 2026)
